# Data from IntAct's records for PubMed 31515488.
# B1: Keratin, type II cytoskeletal 79 (Homo sapiens), Q5XKE5 (parent)
# chain: MRSSVSRQTYSTKGGFSSNSASGGSGSQARTSFSSVTVSRSSGSGGGAHCGPGTGGFGSRSLYNLGGHKSISVSVAGGALLGRALGGFGFGSRAFMGQGAGRQTFGPACPPGGIQEVTVNQSLLTPLHVEIDPEIQRVRTQEREQIKTLNNKFASFIDKVRFLEQQNKVLETKWALLQEQGQNLGVTRNNLEPLFEAYLGSMRSTLDRLQSERGRLDSELRNVQDLVEDFKNKYEDEINKHTAAENEFVVLKKDVDAAYMGRMDLHGKVGTLTQEIDFLQQLYEMELSQVQTHVSNTNVVLSMDNNRNLDLDSIIAEVKAQYELIAQRSRAEAEAWYQTKYEELQVTAGKHGDNLRDTKNEIAELTRTIQRLQGEADAAKKQCQQLQTAIAEAEQRGELALKDAQKKLGDLDVALHQAKEDLTRLLRDYQELMNVKLALDVEIATYRKLLESEESRMSGECPSAVSISVTGNSTTVCGGGAASFGGGISLGGSGGATKGGFSTNVGYSTVKGGPVSAGTSILRKTTTVKTSSQRY
# B2: UV excision repair protein RAD23 homolog B (Homo sapiens), P54727 (parent)
# chain: MQVTLKTLQQQTFKIDIDPEETVKALKEKIESEKGKDAFPVAGQKLIYAGKILNDDTALKEYKIDEKNFVVVMVTKPKAVSTPAPATTQQSAPASTTAVTSSTTTTVAQAPTPVPALAPTSTPASITPASATASSEPAPASAAKQEKPAEKPAETPVATSPTATDSTSGDSSRSNLFEDATSALVTGQSYENMVTEIMSMGYEREQVIAALRASFNNPDRAVEYLLMGIPGDRESQAVVDPPQAASTGAPQSSAVAAAAATTTATTTTTSSGGHPLEFLRNQPQFQQMRQIIQQNPSLLPALLQQIGRENPQLLQQISQHQEHFIQMLNEPVQEAGGQGGGGGGGSGGIAEAGSGHMNYIQVTPQEKEAIERLKALGFPEGLVIQAYFACEKNENLAANFLLQQNFDED
# partner: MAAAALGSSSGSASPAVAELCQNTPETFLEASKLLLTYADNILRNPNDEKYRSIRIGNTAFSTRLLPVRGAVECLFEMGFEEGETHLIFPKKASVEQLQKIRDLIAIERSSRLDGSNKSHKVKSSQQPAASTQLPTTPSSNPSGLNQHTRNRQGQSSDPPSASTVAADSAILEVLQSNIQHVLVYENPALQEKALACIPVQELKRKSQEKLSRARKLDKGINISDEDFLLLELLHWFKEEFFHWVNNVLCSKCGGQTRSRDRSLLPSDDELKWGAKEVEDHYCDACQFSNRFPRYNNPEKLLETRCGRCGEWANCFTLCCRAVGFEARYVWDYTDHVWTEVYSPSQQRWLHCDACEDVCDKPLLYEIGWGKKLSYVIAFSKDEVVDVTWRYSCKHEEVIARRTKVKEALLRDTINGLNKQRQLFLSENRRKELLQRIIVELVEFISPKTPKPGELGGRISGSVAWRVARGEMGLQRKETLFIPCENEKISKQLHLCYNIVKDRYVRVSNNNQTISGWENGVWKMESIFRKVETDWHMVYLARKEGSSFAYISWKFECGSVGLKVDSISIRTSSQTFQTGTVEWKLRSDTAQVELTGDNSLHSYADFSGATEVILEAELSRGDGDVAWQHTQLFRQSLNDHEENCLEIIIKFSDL
# B3: Isoform Long of Autophagy protein 5 (Homo sapiens), Q9H1Y0-1 (parent)
# chain: MTDDKDVLRDVWFGRIPTCFTLYQDEITEREAEPYYLLLPRVSYLTLVTDKVKKHFQKVMRQEDISEIWFEYEGTPLKWHYPIGLLFDLLASSSALPWNITVHFKSFPEKDLLHCPSKDAIEAHFMSCMKEADALKHKSQVINEMQKKDHKQLWMGLQNDRFDQFWAINRKLMEYPAEENGFRYIPFRIYQTTTERPFIQKLFRPVAADGQLHTLGDLLKEVCPSAIDPEDGEKKNQVMIHGIEPMLETPLQWLSEHLSYPDNFLHISIIPQPTD
# partner: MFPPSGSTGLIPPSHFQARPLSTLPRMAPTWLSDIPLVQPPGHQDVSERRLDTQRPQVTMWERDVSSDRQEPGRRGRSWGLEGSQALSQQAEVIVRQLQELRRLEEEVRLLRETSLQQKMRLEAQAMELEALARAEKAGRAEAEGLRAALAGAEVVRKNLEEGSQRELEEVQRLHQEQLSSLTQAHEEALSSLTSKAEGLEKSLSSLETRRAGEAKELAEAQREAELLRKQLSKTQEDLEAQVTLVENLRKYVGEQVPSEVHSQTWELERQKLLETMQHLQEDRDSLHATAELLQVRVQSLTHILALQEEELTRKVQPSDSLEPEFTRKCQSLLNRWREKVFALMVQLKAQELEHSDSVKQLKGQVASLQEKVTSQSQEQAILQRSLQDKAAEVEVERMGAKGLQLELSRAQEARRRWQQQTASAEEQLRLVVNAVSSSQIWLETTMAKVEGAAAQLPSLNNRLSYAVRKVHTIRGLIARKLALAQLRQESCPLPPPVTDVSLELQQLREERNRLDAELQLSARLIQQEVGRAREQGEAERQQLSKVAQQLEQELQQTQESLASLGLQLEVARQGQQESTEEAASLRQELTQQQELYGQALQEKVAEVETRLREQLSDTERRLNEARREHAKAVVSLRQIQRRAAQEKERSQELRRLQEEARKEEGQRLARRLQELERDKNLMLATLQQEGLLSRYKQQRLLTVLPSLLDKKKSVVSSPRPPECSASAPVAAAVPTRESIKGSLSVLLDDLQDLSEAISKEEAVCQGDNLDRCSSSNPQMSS
# B4: WASH complex subunit 3 (Homo sapiens), Q9Y3C0 (parent)
# chain: MDEDGLPLMGSGIDLTKVPAIQQKRTVAFLNQFVVHTVQFLNRFSTVCEEKLADLSLRIQQIETTLNILDAKLSSIPGLDDVTVEVSPLNVTSVTNGAHPEATSEQPQQNSTQDSGLQESEVSAENILTVAKDPRYARYLKMVQVGVPVMAIRNKMISEGLDPDLLERPDAPVPDGESEKTVEESSDSESSFSD
# partner: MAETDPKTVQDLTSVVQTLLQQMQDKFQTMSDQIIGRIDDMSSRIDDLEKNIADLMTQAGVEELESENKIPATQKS
# Variants of: B1
# Settings: with KRT15, P19012
# Sequence of KRT15, P19012 (P19012 whole entry): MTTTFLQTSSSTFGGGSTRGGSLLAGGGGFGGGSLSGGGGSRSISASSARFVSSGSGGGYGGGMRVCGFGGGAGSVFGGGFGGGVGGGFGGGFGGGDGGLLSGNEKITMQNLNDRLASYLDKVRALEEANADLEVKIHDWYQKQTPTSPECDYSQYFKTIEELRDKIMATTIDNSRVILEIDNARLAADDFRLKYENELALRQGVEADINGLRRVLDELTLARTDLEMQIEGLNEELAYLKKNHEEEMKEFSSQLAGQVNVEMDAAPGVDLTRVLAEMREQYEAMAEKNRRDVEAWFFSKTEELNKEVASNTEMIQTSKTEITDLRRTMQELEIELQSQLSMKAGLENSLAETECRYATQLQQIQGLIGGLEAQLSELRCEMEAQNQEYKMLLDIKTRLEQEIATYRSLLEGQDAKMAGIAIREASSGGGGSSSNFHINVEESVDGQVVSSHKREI
row,effect of a mutation on the interaction,Variant
1,with no effect,R213W
2,with no effect,R161Q

# Variants of: B2
# Settings: with ngly1_human NGLY1, Q96IV0
row,effect of a mutation on the interaction,Variant
1,with no effect,T269R
2,with no effect,P119H

# Variants of: B3
# Settings: with cchcr_human CCHCR1, Q8TD31
row,Variant,effect of a mutation on the interaction
1,K58M,with no effect

# Variants of: B4
# Settings: with hsbp1_human HSBP1, O75506
row,effect of a mutation on the interaction,Variant
1,with no effect,F44L
